In the supplement of paper PMC10567573:

B1: KCNG1 (parent)
chain: AVNLSVSTLPSLREEEEQVRAHAP

Variants of: B1
Experiment: protein stability index of a GFP-peptide fusion (GPS, HEK-293T) (PSI 1-6); higher = more stable
Conditions: c terminus: a fixed tail appended
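Further: lentivirally expressed fusions sorted by FACS into six bins by GFP to DsRed ratio, PSI derived from sequencing read proportions per bin multiplied by bin number.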

Question: For AVNLSVSTLPSLREEEEQVRAHWP, which protein stability index is on record?
Answer: 4.32

Question: For AVNLSVSTLPSLREEEEQVRAHHP, which protein stability index is on record?
Answer: 4.87

Question: Which protein stability index does the source give for AVNLSVSTLPSLREEEEQVRAHMP here?
Answer: 4.83

Question: For AVNLSVSTLPSLREEEEQVRAHSP, which protein stability index is on record?
Answer: 5.2

Question: With AVNLSVSTLPSLREEEEQVRAHFP as the variant, how does the protein stability index read?
Answer: 4.1

Question: Which protein stability index does the source give for AVNLSVSTLPSLREEEEQVRAHLP here?
Answer: 5.02

Question: Which protein stability index does the source give for AVNLSVSTLPSLREEEEQVRAHQP here?
Answer: 5.27

Question: For AVNLSVSTLPSLREEEEQVRAHCP, which protein stability index is on record?
Answer: 4.86

Question: With AVNLSVSTLPSLREEEEQVRAHRP as the variant, how does the protein stability index read?
Answer: 5.04

Question: With AVNLSVSTLPSLREEEEQVRAHDP as the variant, how does the protein stability index read?
Answer: 5.3

Question: Which protein stability index does the source give for AVNLSVSTLPSLREEEEQVRAHYP here?
Answer: 4.3

Question: Which protein stability index does the source give for AVNLSVSTLPSLREEEEQVRAHNP here?
Answer: 5.26

Question: With AVNLSVSTLPSLREEEEQVRAHEP as the variant, how does the protein stability index read?
Answer: 4.82

Question: With AVNLSVSTLPSLREEEEQVRAHGP as the variant, how does the protein stability index read?
Answer: 5.71

Question: Which protein stability index does the source give for AVNLSVSTLPSLREEEEQVRAHKP here?
Answer: 5.1

Question: For AVNLSVSTLPSLREEEEQVRAHVP, which protein stability index is on record?
Answer: 5.07

Question: With AVNLSVSTLPSLREEEEQVRAHTP as the variant, how does the protein stability index read?
Answer: 4.87

Question: For AVNLSVSTLPSLREEEEQVRAHPP, which protein stability index is on record?
Answer: 5.29

Question: With AVNLSVSTLPSLREEEEQVRAHIP as the variant, how does the protein stability index read?
Answer: 4.82

Question: For AVNLSVSTLPSLREEEEQVRARAP, which protein stability index is on record?
Answer: 5.22

Question: Which protein stability index does the source give for AVNLSVSTLPSLREEEEQVRADAP here?
Answer: 5.01

Question: Which protein stability index does the source give for AVNLSVSTLPSLREEEEQVRAKAP here?
Answer: 5.49

Question: With AVNLSVSTLPSLREEEEQVRAEAP as the variant, how does the protein stability index read?
Answer: 5.62

Question: For AVNLSVSTLPSLREEEEQVRATAP, which protein stability index is on record?
Answer: 4.91

Question: For AVNLSVSTLPSLREEEEQVRANAP, which protein stability index is on record?
Answer: 5.26

Question: For AVNLSVSTLPSLREEEEQVRALAP, which protein stability index is on record?
Answer: 4.83

Question: With AVNLSVSTLPSLREEEEQVRAVAP as the variant, how does the protein stability index read?
Answer: 4.76

Question: For AVNLSVSTLPSLREEEEQVRAAAP, which protein stability index is on record?
Answer: 5.11

Question: Which protein stability index does the source give for AVNLSVSTLPSLREEEEQVRAGAP here?
Answer: 5.29

Question: Which protein stability index does the source give for AVNLSVSTLPSLREEEEQVRAFAP here?
Answer: 4.49

Question: Which protein stability index does the source give for AVNLSVSTLPSLREEEEQVRAMAP here?
Answer: 5.28

Question: With AVNLSVSTLPSLREEEEQVRAQAP as the variant, how does the protein stability index read?
Answer: 4.57

Question: Which protein stability index does the source give for AVNLSVSTLPSLREEEEQVRAWAP here?
Answer: 3.02

Question: For AVNLSVSTLPSLREEEEQVRAIAP, which protein stability index is on record?
Answer: 4.45

Question: Which protein stability index does the source give for AVNLSVSTLPSLREEEEQVRAYAP here?
Answer: 4.87

Question: For AVNLSVSTLPSLREEEEQVRAPAP, which protein stability index is on record?
Answer: 4.62

Question: With AVNLSVSTLPSLREEEEQVRASAP as the variant, how does the protein stability index read?
Answer: 5.49

Question: For AVNLSVSTLPSLREEEEQVRACAP, which protein stability index is on record?
Answer: 4.92

Question: With AVNLSVSTLPSLREEEEQVRAHAD as the variant, how does the protein stability index read?
Answer: 5.57

Question: With AVNLSVSTLPSLREEEEQVRAHAN as the variant, how does the protein stability index read?
Answer: 5.34

Question: With AVNLSVSTLPSLREEEEQVRAHAC as the variant, how does the protein stability index read?
Answer: 5.04

Question: With AVNLSVSTLPSLREEEEQVRAHAE as the variant, how does the protein stability index read?
Answer: 5.61

Question: For AVNLSVSTLPSLREEEEQVRAHAM, which protein stability index is on record?
Answer: 4.55

Question: For AVNLSVSTLPSLREEEEQVRAHAF, which protein stability index is on record?
Answer: 4.42

Question: For AVNLSVSTLPSLREEEEQVRAHAS, which protein stability index is on record?
Answer: 4.84

Question: For AVNLSVSTLPSLREEEEQVRAHAL, which protein stability index is on record?
Answer: 4.94

Question: With AVNLSVSTLPSLREEEEQVRAHAR as the variant, how does the protein stability index read?
Answer: 5.08

Question: With AVNLSVSTLPSLREEEEQVRAHAW as the variant, how does the protein stability index read?
Answer: 4

Question: With AVNLSVSTLPSLREEEEQVRAHAT as the variant, how does the protein stability index read?
Answer: 5.36

Question: Which protein stability index does the source give for AVNLSVSTLPSLREEEEQVRAHAV here?
Answer: 5.11

Question: For AVNLSVSTLPSLREEEEQVRAHAG, which protein stability index is on record?
Answer: 5.37

Question: For AVNLSVSTLPSLREEEEQVRAHAI, which protein stability index is on record?
Answer: 4.58

Question: Which protein stability index does the source give for AVNLSVSTLPSLREEEEQVRAHAQ here?
Answer: 5.23

Question: With AVNLSVSTLPSLREEEEQVRAHAA as the variant, how does the protein stability index read?
Answer: 5.57

Question: Which protein stability index does the source give for AVNLSVSTLPSLREEEEQVRAHAY here?
Answer: 4.41

Question: With AVNLSVSTLPSLREEEEQVRAHAK as the variant, how does the protein stability index read?
Answer: 4.92

Question: With AVNLSVSTLPSLREEEEQVRAHAH as the variant, how does the protein stability index read?
Answer: 5.41

Question: With AVNLSVSTLPSLREEYEQVRAHAP as the variant, how does the protein stability index read?
Answer: 3.63

Question: With AVNLSVSTLPSLREEVEQVRAHAP as the variant, how does the protein stability index read?
Answer: 4.32

Question: For AVNLSVSTLPSLREETEQVRAHAP, which protein stability index is on record?
Answer: 4.12

Question: For AVNLSVSTLPSLREESEQVRAHAP, which protein stability index is on record?
Answer: 4.27

Question: For AVNLSVSTLPSLREEWEQVRAHAP, which protein stability index is on record?
Answer: 3.38

Question: For AVNLSVSTLPSLREEEEQVTAHAP, which protein stability index is on record?
Answer: 5.27

Question: For AVNLSVSTLPSLREEEEQVFAHAP, which protein stability index is on record?
Answer: 4.48

Question: For AVNLSVSTLPSLREEEEQVKAHAP, which protein stability index is on record?
Answer: 5.17

Question: With AVNLSVSTLPSLREEEEQVNAHAP as the variant, how does the protein stability index read?
Answer: 5.3

Question: Which protein stability index does the source give for AVNLSVSTLPSLREEEEQVEAHAP here?
Answer: 5.63

Question: With AVNLSVSTLPSLREEEEQVQAHAP as the variant, how does the protein stability index read?
Answer: 5.12

Question: With AVNLSVSTLPSLREEEEQVSAHAP as the variant, how does the protein stability index read?
Answer: 4.75

Question: For AVNLSVSTLPSLREEEEQVWAHAP, which protein stability index is on record?
Answer: 4.55

Question: For AVNLSVSTLPSLREEEEQVHAHAP, which protein stability index is on record?
Answer: 5.06

Question: For AVNLSVSTLPSLREEEEQVYAHAP, which protein stability index is on record?
Answer: 4.75

Question: Which protein stability index does the source give for AVNLSVSTLPSLREEEEQVGAHAP here?
Answer: 5.48

Question: For AVNLSVSTLPSLREEEEQVIAHAP, which protein stability index is on record?
Answer: 5.14

Question: Which protein stability index does the source give for AVNLSVSTLPSLREEEEQVLAHAP here?
Answer: 5.37

Question: With AVNLSVSTLPSLREEEEQVVAHAP as the variant, how does the protein stability index read?
Answer: 4.94

Question: Which protein stability index does the source give for AVNLSVSTLPSLREEEEQVAAHAP here?
Answer: 5.56

Question: For AVNLSVSTLPSLREEEEQVCAHAP, which protein stability index is on record?
Answer: 4.79

Question: For AVNLSVSTLPSLREEEEQVPAHAP, which protein stability index is on record?
Answer: 5.17

Question: For AVNLSVSTLPSLREEEEQVMAHAP, which protein stability index is on record?
Answer: 5.2

Question: Which protein stability index does the source give for AVNLSVSTLPSLREEEEQVDAHAP here?
Answer: 5.96

Question: With AVNLSVSTLPSLREEEEQCRAHAP as the variant, how does the protein stability index read?
Answer: 4.84

Question: For AVNLSVSTLPSLREEEEQFRAHAP, which protein stability index is on record?
Answer: 4.62

Question: Which protein stability index does the source give for AVNLSVSTLPSLREEEEQDRAHAP here?
Answer: 5.33

Question: With AVNLSVSTLPSLREEEEQGRAHAP as the variant, how does the protein stability index read?
Answer: 5.21

Question: With AVNLSVSTLPSLREEEEQNRAHAP as the variant, how does the protein stability index read?
Answer: 5.09

Question: Which protein stability index does the source give for AVNLSVSTLPSLREEEEQMRAHAP here?
Answer: 4.85

Question: With AVNLSVSTLPSLREEEEQQRAHAP as the variant, how does the protein stability index read?
Answer: 5.24

Question: For AVNLSVSTLPSLREEEEQLRAHAP, which protein stability index is on record?
Answer: 5.14

Question: With AVNLSVSTLPSLREEEEQSRAHAP as the variant, how does the protein stability index read?
Answer: 5.33

Question: Which protein stability index does the source give for AVNLSVSTLPSLREEEEQRRAHAP here?
Answer: 4.73

Question: With AVNLSVSTLPSLREEEEQERAHAP as the variant, how does the protein stability index read?
Answer: 5.3

Question: Which protein stability index does the source give for AVNLSVSTLPSLREEEEQYRAHAP here?
Answer: 4.71

Question: With AVNLSVSTLPSLREEEEQKRAHAP as the variant, how does the protein stability index read?
Answer: 5.07
